Consider two molecules from patent publication US20230002478A1 (published 2023).

The target in assay [1] is SARS-CoV-2 S1 (SARS-CoV-2, UniProt P0DTC2 16-685). Nature of the assay: SPR. A general note: Surface plasmon resonance follows binding to a sensor surface in real time, without labels.
Assay [2] deals with SARS-CoV-2 S Trimer (SARS-CoV-2, UniProt P0DTC2 16-1213). Briefly: SPR.

The term Kd denotes the constant that tells how readily two partners part at equilibrium. A high value points to weaker binding.

B1: antibody 202-03 (Fc fusion)
chain: EVQLVESGGGLVQPGGSLRLSCAASGFTFSPSWMGWFRQAPGKEREFVATINEYGGRNYADSVKGRFTISADNSKNTAYLQMNSLKPEDTAVYYCARVDRDFDYWGQGTLVTVSS
With B1, the Kd in assay [1] worked out at 0.011 nM; in assay [2], 0.299 nM.

B2: antibody 339-031 (Fc fusion)
chain: EVQLVESGGGLVQPGGSLRLSCAASGSTFSINAMGWFRQAPGKEREFVAGITSSGGYTNYADSVKGRFTISADNSKNTAYLQMNSLKPEDTAVYYCAADGVPEYSDYASGPVWGQGTLVTVSS
B2: the Kd is 0.006 nM in assay [1] and below 0.014 nM in assay [2].
